Patent publication US20200148779A1 (Bristol-Myers Squibb, published 2020)
Residue numbers refer to the chain shown, from its start.

B1: 3h56-269-IgG1.1f (Fc fusion)
chain: EVQLLESGGGLVQPGGSLRLSCAASGFTFRDYEMWWVRQAPGKGLERVSAINPQGTRTYYADSVKGRFTISRDNSKNTLYLQMNSLRAEDTAVYYCAKLPFRFSDRGQGTLVTVSSASTEPKSCDKTHTCPPCPAPEAEGAPSVFLFPPKPKDTLMISRTPEVTCVVVDVSHEDPEVKFNWYVDGVEVHNAKTKPREEQYNSTYRVVSVLTVLHQDWLNGKEYKCKVSNKALPSSIEKTISKAKGQPREPQVYTLPPSREEMTKNQVSLTCLVKGFYPSDIAVEWESNGQPENNYKTTPPVLDSDGSFFLYSKLTVDKSRWQQGNVFSCSVMHEALHNHYTQKSLSLSPGK
B2: 3h56-269-IgG1.3f (Fc fusion)
chain: B1 chain with S234A, S235P

Biological target: T1, human-CD40-Fc (human, UniProt P25942 21-193)
T1 construct: generated in house; also called hCD40-Fc; not shown: Fc part of the in-house hCD40-Fc is not described
Assay: SPR, dAb-Fc on immobilized hCD40-Fc, apparent KD (avidity)

T1 sequence (P25942 21-193): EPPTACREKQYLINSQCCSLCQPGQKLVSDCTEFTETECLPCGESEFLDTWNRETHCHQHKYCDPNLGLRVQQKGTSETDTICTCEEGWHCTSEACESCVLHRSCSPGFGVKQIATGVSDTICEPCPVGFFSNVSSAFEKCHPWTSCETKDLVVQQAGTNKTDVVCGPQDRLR

Binder	Kd [nM]
B1	< 1
B2	< 1
